We go through 1 molecule from paper PMC10626271 (FEBS Open Bio, 2023).

The Kd is the constant that tells how readily two partners part at equilibrium. Lower therefore signals a tighter complex. What is called stoichiometry N is a count of units in the complex or per binding partner.

The target of data set [1] is T1, C-terminal domain of ASPL (ASPL-C, residues 313-553) (human, UniProt Q9BZE9 313-553).
T1 construct: the 26 kDa printed for ASPL-C in the cross-linking experiment fits the chain without GST; The cited crystal structure covers residues 317-499; source: E. coli BL21 DE3 Rosetta2, purified (glutathione-Sepharose 4B, Superdex 75 SEC)
T1 sequence (looked up): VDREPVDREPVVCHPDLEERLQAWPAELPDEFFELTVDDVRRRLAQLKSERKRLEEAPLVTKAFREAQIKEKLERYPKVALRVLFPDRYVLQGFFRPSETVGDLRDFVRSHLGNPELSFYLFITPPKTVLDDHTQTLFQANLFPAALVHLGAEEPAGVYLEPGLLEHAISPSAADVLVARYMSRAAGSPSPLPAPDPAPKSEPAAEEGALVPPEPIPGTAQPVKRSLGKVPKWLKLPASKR
The data set is described as follows: SPR; ASPL-C immobilised on CM5 chip by amine coupling (1000 RU); analytes 0.6 to 83 μM in 10 mM HEPES, 150 mM NaCl, 0.005% Tween20, pH 7.4; BIAcore 3000, duplicates; one-site specific binding fit of the response against concentration; no saturation reached. Particulars: both partners purified. For orientation: SPR reads the build-up and loss of mass on a sensor chip optically.

Data set [2] deals with the molecule itself. The data set can be described thus: SEC; Superdex 75 increase 10/300 of Ni-NTA purified Trx-ICH_(GLUT4).

B1: Thioredoxin fused C-terminally with human GLUT4 intracellular helical bundle (residues 225-271, I232C/K264C) (domain or fragment, UniProt P14672 225-271, looked up)
chain: ESPRYLYCIQNLEGPARKSLKRLTGWADVSGVLAELKDECRKLERER
notes: human GLUT4 intracellular helical bundle (ICH) between TM6 and TM7, residues 225-271, with I232C and K264C to form a stabilising disulphide bond; Synthetic gene (GenScript) in pET24a; 18 kDa monomer; a 36 kDa peak was also seen on SEC; also called Trx-ICH_(GLUT4); ICH_(GLUT4); source: E. coli TUNER (DE3), purified (Ni-NTA, Superdex 75 SEC; monomer peak used); not shown: Trx (thioredoxin), …
Regarding B1, the equilibrium dissociation constant (Kd) in data set [1] was determined as 68 µM. Also, in data set [2], the “stoichiometry N” value was determined as 2.
